In publication doi:10.1101/2022.10.27.514150:

Molecular target: Gluc1-E2F4 (human), Q16254
Test: split reporter
Settings: remark: other sources report otherwise

Chain of Gluc1-E2F4 (human), Q16254 (Q16254 whole entry): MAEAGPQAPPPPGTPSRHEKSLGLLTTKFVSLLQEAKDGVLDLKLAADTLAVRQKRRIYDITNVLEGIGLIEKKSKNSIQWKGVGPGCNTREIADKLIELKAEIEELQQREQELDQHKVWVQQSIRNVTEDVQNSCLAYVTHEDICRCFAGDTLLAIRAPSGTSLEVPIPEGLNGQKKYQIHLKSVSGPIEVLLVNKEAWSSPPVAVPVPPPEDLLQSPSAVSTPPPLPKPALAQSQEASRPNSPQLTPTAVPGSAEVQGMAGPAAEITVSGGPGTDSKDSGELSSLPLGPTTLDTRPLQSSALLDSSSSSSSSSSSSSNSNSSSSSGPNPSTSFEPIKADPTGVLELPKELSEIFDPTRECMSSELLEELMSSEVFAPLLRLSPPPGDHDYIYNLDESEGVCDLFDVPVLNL

B1: Gluc2-p130, Q08999 1-1139 (natural protein)
chain: MPSGGDQSPPPPPPPPAAAASDEEEEDDGEAEDAAPPAESPTPQIQQRFDELCSRLNMDEAARAEAWDSYRSMSESYTLEGNDLHWLACALYVACRKSVPTVSKGTVEGNYVSLTRILKCSEQSLIEFFNKMKKWEDMANLPPHFRERTERLERNFTVSAVIFKKYEPIFQDIFKYPQEEQPRQQRGRKQRRQPCTVSEIFHFCWVLFIYAKGNFPMISDDLVNSYHLLLCALDLVYGNALQCSNRKELVNPNFKGLSEDFHAKDSKPSSDPPCIIEKLCSLHDGLVLEAKGIKEHFWKPYIRKLYEKKLLKGKEENLTGFLEPGNFGESFKAINKAYEEYVLSVGNLDERIFLGEDAEEEIGTLSRCLNAGSGTETAERVQMKNILQQHFDKSKALRISTPLTGVRYIKENSPCVTPVSTATHSLSRLHTMLTGLRNAPSEKLEQILRTCSRDPTQAIANRLKEMFEIYSQHFQPDEDFSNCAKEIASKHFRFAEMLYYKVLESVIEQEQKRLGDMDLSGILEQDAFHRSLLACCLEVVTFSYKPPGNFPFITEIFDVPLYHFYKVIEVFIRAEDGLCREVVKHLNQIEEQILDHLAWKPESPLWEKIRDNENRVPTCEEVMPPQNLERADEICIAGSPLTPRRVTEVRADTGGLGRSITSPTTLYDRYSSPPASTTRRRLFVENDSPSDGGTPGRMPPQPLVNAVPVQNVSGETVSVTPVPGQTLVTMATATVTANNGQTVTIPVQGIANENGGITFFPVQVNVGGQAQAVTGSIQPLSAQALAGSLSSQQVTGTTLQVPGQVAIQQISPGGQQQKQGQSVTSSSNRPRKTSSLSLFFRKVYHLAAVRLRDLCAKLDISDELRKKIWTCFEFSIIQCPELMMDRHLDQLLMCAIYVMAKVTKEDKSFQNIMRCYRTQPQARSQVYRSVLIKGKRKRRNSGSSDSRSHQNSPTELNKDRTSRDSSPVMRSSSTLPVPQPSSAPPTPTRLTGANSDMEEEERGDLIQFYNNIYIKQIKTFAMKYSQANMDAPPLSPYPFVRTGSPRRIQLSQNHPVYISPHKNETMLSPREKIFYYFSNSPSKRLREINSMIRTGETPTKKRGILLEDGSESPAKRICPENHSALLRRLQDVANDRGSH
  normalized luminescence ratio (NLR): > 40
